{"source": "paper PMC3068998", "proteins": {"B1": {"name": "SV2A: N498Q (protein)", "parent chain": "MEEGFRDRAAFIRGAKDIAKEVKKHAAKKVVKGLDRVQDEYSRRSYSRFEEEEDDDDFPAPADGYYRGEGAQDEEEGGASSDATEGHDEDDEIYEGEYQGIPRAESGGKGERMADGAPLAGVRGGLSDGEGPPGGRGEAQRRKDREELAQQYETILRECGHGRFQWTLYFVLGLALMADGVEVFVVGFVLPSAEKDMCLSDSNKGMLGLIVYLGMMVGAFLWGGLADRLGRRQCLLISLSVNSVFAFFSSFVQGYGTFLFCRLLSGVGIGGSIPIVFSYFSEFLAQEKRGEHLSWLCMFWMIGGVYAAAMAWAIIPHYGWSFQMGSAYQFHSWRVFVLVCAFPSVFAIGALTTQPESPRFFLENGKHDEAWMVLKQVHDTNMRAKGHPERVFSVTHIKTIHQEDELIEIQSDTGTWYQRWGVRALSLGGQVWGNFLSCFSPEYRRITLMMMGVWFTMSFSYYGLTVWFPDMIRHLQAVDYAARTKVFPGERVEHVTFNFTLENQIHRGGQYFNDKFIGLRLKSVSFEDSLFEECYFEDVTSSNTFFRNCTFINTVFYNTDLFEYKFVNSRLVNSTFLHNKEGCPLDVTGTGEGAYMVYFVSFLGTLAVLPGNIVSALLMDKIGRLRMLAGSSVLSCVSCFFLSFGNSESAMIALLCLFGGVSIASWNALDVLTVELYPSDKRTTAFGFLNALCKLAAVLGISIFTSFVGITKAAPILFASAALALGSSLALKLPETRGQVLQ"}, "B2": {"name": "SV2A: N548Q (protein)", "parent chain": "B1 parent chain"}}, "settings": "glycan lost"}
{"protein": "B1", "values": [{"measurement": "other: toxin entry into neurons", "value": "no change"}]}
{"protein": "B2", "values": [{"measurement": "other: toxin entry into neurons", "value": "no change"}]}
